Experimental data: patent US7387779B2, “Anti-angiogenic proteins and fragments and methods of use thereof” (Beth Israel Deaconess Medical Center, priority 1998, dated 2008)

What was measured:
786-O cells = experiment: Annexin V-FITC apoptosis assay; assay type: cell-based, human; details: 15 μg/ml
Protocol: (§1) Annexin V-FITC Labeling. In order to establish apoptosis as the potential mode of action for Canstatin, Annexin V-FITC was used to label externalized phosphatidylserine (PS), to assess apoptotic cells. 0.5×10^6 C-PAE cells, PC-3, 786-O and HEK 293 cells were added to each well of a 6 well tissue culture plate in 10% FBS supplemented DMEM (BioWhittaker, Walkersville, Md., USA) overnight. The next day, fresh medium was added to all wells together with 40 ng/ml TNF-α (positive control) or 15 μg/ml Canstatin. Control cells received an equal volume of PBS. After 24 hours of treatment, medium containing detached cells was collected and attached cells were trypsinized and combined with detached cells and centrifuged at 3,000×g. Cells were then washed and phosphatidyl-serine externalization (an early apoptotic indicator) was measured by labeling with FITC-labeled annexin V (Clontech, Palo Alto, Calif., USA) according to the manufacturer's instructions. Annexin V-FITC-labeled cells were counted using a FAC Star Plus flow cytometer (Becton-Dickenson, Waltham, Mass., USA). For each treatment 15,000 cells were counted and stored in listmode.

HEK 293 cells = experiment: Annexin V-FITC apoptosis assay; assay type: cell-based, human; details: 15 μg/ml
Protocol: as §1

HUVECs = experiment: Endothelial cell migration, Boyden chamber; assay type: cell-based, human
Protocol: In the process of angiogenesis, endothelial cells not only proliferate but also migrate. Therefore, the effect of Canstatin on endothelial cell migration was assessed. The inhibitory effect of Canstatin and endostatin on FBS-induced chemotaxis was tested on human umbilical endothelial cells (HUVECs) using the Boyden chamber assay (Neuro-Probe, Inc., Cabin John, Md., USA). HUVECs cells were grown in M199 (Life Technologies/Gibco BRL, Gaithersburg, Md., USA) containing 10% FBS and 5 ng/ml DiC 18(3) living fluorescent stain (Molecular Probes, Inc., Eugene, Oreg., USA) overnight. After trypsinizing, washing and diluting cells in M199 containing 0.5% FBS, 60,000 cells were seeded in the upper chamber wells, together with or without Canstatin ([…]). M199 medium containing 2% FBS was placed in the lower chamber as a chemotactant. The cell-containing compartments were separated from the chemotactant with polycarbonate filters (Poretics Corp., Livermore, Calif., USA) of 8 μm pore size. […] Using a fluorescent high power field, several independent homogenous images were recorded by a digital SenSys™ camera operated with Image Processing Software PMIS (Roper Scientific/Photometrics, Tucson, Ariz., USA). Cells were counted by employing the OPTIMIZE 6.0 software-program (Media Cybernetics, Rochester, N.Y.) (Klemke, R. L. et al., 1994, J. Cell. Biol. 127:859-66).

PC-3 tumors = experiment: PC-3 prostate tumor xenograft in SCID mice; assay type: in vivo; details: 10 mg/kg
Protocol: Human prostate adenocarcinoma cells (PC-3 cells) were harvested from culture and 2 million cells in sterile PBS were injected subcutaneously into 7- to 9-week-old male SCID mice. The tumors grew for approximately 4 weeks after which animals were divided into groups of 4 mice. […] The control group received equal volumes of PBS each day. At the start of treatment (day 0), the tumors ranged in volume from 88 mm^3 to 135 mm^3 for the control mice, and 108 mm^3 to 149 mm^3 for the Canstatin-treated mice. Each group contained five mice. […] Canstatin-treated (▪) tumors increased only marginally in size relative to controls (□).

[1] = test system: CD31-positive tumor vasculature; experiment: CD31 immunohistochemistry of xenograft tumors; details: mouse, in vivo
Protocol: Mice from the tumor studies were sacrificed after 10-20 days of treatment. Tumours were excised and fixed in 4% paraformaldehyde. Tissues were paraffin embedded and 3 μm sections were cut and mounted on glass slides. Sections were deparaffinized, rehydrated and treated with […] protease XXIV (SIGMA Chemical Co., St. Louis, Mo., USA) at 37° C. for 5 minutes. Digestion was stopped with 100% ethanol and sections were air dried and blocked with 10% rabbit serum. […]
CD31 immunostaining was used to determine the intra-tumoral microvessel density (MVD) in frozen histological sections of the PC-3 tumor xenografts, using a rat anti-mouse […] monoclonal antibody (PharMingen, San Diego, Calif., USA) with a standard streptavidin-biotin-peroxidase detection system (Vectastain ABC Elite Kit, Vector Labs, Burlingame, Calif., USA). […] MVD was assessed by scanning the tumor at low power magnification, then identifying three areas at the tumor periphery which contained the maximum number of discrete microvessels, and then counting individual microvessels on a 40× field. The mean microvessel density was compared among treatment groups and analyzed using the Student's t-test.

MDA-MB435 tumors = experiment: MDA-MB435 breast cancer carcinoma orthotopic model (Example 41); assay type: in vivo; details: 5 mg or 20 mg per kilogram
Caspase-3 in C-PAE cells = experiment: Caspase-3 assay; assay type: cell-based, bovine; details: 20 μg/ml Tumstatin; TNF-α positive control

B1: Canstatin: NC1 domain of the α2 chain of Type IV collagen (SEQ ID NO:6) (protein, listed as Homo sapiens)
chain: VSIGYLLVKHSQTDQEPMCPVGMNKLWSGYSLLYFEGQEKAHNQDLGLAGSCLARFSTMPFLYCNPGDVCYYASRNDKSYWLSTTAPLPMMPVAEDEIKPYISRCSVCEAPAIAIAVHSQDVSIPHCPAGWRSLWIGYSFLMHTAAGDEGGGQSLVSPGSCLEDFRATPFIECNGGRGTCHYYANKYSFWLTTIPEQSFQGSPSADTLKAGLIRTHISRCQVCMKNL
apoptosis of 786-O cells (786-O cells): no significant effect | apoptosis of HEK 293 cells (HEK 293 cells): no significant effect | concentration with significant effect on migration (HUVECs): 10 ng/mL | fractional tumor volume as % of vehicle only-injected mice (PC-3 tumors): 55% | fractional tumor volume, fold less than vehicle (PC-3 tumors): 1.8 fold | CD31 staining of tumor vasculature, treated vs control [1]: decrease in CD31-positive vasculature

B2: Tum-1: residues 54 to 244 of Tumstatin, lacking the N-terminal 53 amino acids (SEQ ID NO:22) (protein)
chain: QRAHGQDLGTLGSCLQRFTTMPFLFCNVNDVCNFASRNDYSYWLSTPALMPMNMAPITGRALEPYISRCTVCEGPAIAIAVHSQTTDIPPCPHGWISLWKGFSFIMFTSAGSEGTGQALASPGSCLEEFRASPFLECHGRGTCNYYSNSYSFWLASLNPERMFRKPIPSTVKAGELEKIISRCQVCMKKRH
modifications: Tum-1 (Tumstatin N-53) (amino acids 54-244 of SEQ ID NO10)
anti-tumor activity (MDA-MB435 tumors): substantial anti-tumor activity

B3: Tumstatin: NC1 domain of the α3 chain of type IV collagen, residues 1-244 (SEQ ID NO:10) (protein, listed as Homo sapiens)
chain: GLKGKRGDSGSPATWTTRGFVFTRHSQTTAIPSCPEGTVPLYSGFSFLFVQGNQRAHGQDLGTLGSCLQRFTTMPFLFCNVNDVCNFASRNDYSYWLSTPALMPMNMAPITGRALEPYISRCTVCEGPAIAIAVHSQTTDIPPCPHGWISLWKGFSFIMFTSAGSEGTGQALASPGSCLEEFRASPFLECHGRGTCNYYSNSYSFWLASLNPERMFRKPIPSTVKAGELEKIISRCQVCMKKRH
fold increase in Caspase-3 activity (Caspase-3 in C-PAE cells): 1.6 fold
